Key:
[1] = target: GKL (quorum-quenching lactonase from Geobacillus kaustophilus) (Geobacillus kaustophilus, UniProt Q5KZU5, E101G/R230C/D266N)
[2] = test system: CCCCCC(=O)CC(=O)N[C@H]1CCOC1=O; assay: purified protein; settings: pH 8.3; 37.0 °C
[3] = test system: CCCC(=O)CC(=O)N[C@H]1CCOC1=O; assay: purified protein; settings: pH 8.3; 37.0 °C

Compound	X-ray crystal structure, 2.2 Å [1]	Km [2] [mM]	kcat/Km [2] [M⁻¹ s⁻¹]	Km [3] [mM]	kcat/Km [3] [M⁻¹ s⁻¹]
CCCC(=O)NC1CCOC1=O (racemic) [C4-HSL, N-butyryl-L-homoserine lactone]	its catalytically inactive variant E101G/R230C/D266N with the quorum-molecule C4-HSL bound in the active site	–	–	–	–
GKL (quorum-quenching lactonase from Geobacillus kaustophilus) (Geobacillus kaustophilus HTA426)	–	5.5 ± 2.1	38	–	–
GKL (quorum-quenching lactonase from Geobacillus kaustophilus) (Geobacillus kaustophilus HTA426; E101G/R230C)	–	3.0 ± 0.4	700	22 ± 12	50
GKL (quorum-quenching lactonase from Geobacillus kaustophilus) (Geobacillus kaustophilus HTA426; E101N)	–	4.0 ± 3.2	53	–	–

— PMC3629905 (Biochemistry, 2013)
